This is an account of results in patent publication US9963506B2, “Human-mouse chimeric anti-CD147 antibody with non-fucosylated glycosylation” (Fourth Military Medical University, priority 2015, dated 2018).

In this assay the target is T1, CD147^+ A549 cells (Homo sapiens, UniProt P35613).
T1 construct: endogenous in cells; host or cells: A549 (human lung cancer cell line)
T1 sequence (P35613 22-269 isoform P35613-2 limits assumed): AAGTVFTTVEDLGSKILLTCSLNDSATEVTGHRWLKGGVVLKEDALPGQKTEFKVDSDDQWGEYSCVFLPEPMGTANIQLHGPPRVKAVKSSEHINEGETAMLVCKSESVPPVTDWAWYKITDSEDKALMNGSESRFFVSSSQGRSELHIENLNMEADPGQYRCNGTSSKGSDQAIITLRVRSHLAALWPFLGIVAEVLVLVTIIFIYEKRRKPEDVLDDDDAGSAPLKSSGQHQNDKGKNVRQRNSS
The assay can be described thus: Antigen-binding activity by flow cytometry. As to the method:
The antibody concentration is 0.001 μg/mL, 0.01 μg/mL, 0.1 μg/mL, 1 μg/ml and 10 μg/mL, respectively.
A549 cells (10^6 cells) were incubated with the Metuzumab (HcHAb18) and cHAb18 antibody, respectively, in PBS with 0.1% BSA at 4° C. for 1 h. After three washes in PBS with 0.1% BSA, cells were incubated with the FITC-conjugated Rabbit anti-Human IgG Fc Secondary Antibody (Pierce) at 4° C. in the dark for 45 min. Cells were then washed three times and suspended in PBS for analysis using a FACS Calibur flow cytometer (BD, New Jersey, U.S.). Relative antigen expression is reported as median fluorescence intensity (MFI).
(A flow cytometer gives signals particle by particle.)

For the substance “cHAb18: human-mouse chimeric anti-CD147 antibody, variable domains from HAb18, human IgG1 constant domains, fucosylated (CHO K1)”, the “CD147-binding ability, Metuzumab compared with cHAb18” value (FIG. 4) is on record as “similar”. In addition, the “Binding to CD147^+ A549 cells” value (FIG. 4, 0.001-10 μg/mL) is “bound”.
